Laboratory results reported in PMC3413111.
Like-named read-outs stand apart in the source and are kept apart here.

Columns and labels:
[1] = molecular target: T1, Bse634I wt (UniProt Q8RT53 1-293); test: EMSA
T1 sequence: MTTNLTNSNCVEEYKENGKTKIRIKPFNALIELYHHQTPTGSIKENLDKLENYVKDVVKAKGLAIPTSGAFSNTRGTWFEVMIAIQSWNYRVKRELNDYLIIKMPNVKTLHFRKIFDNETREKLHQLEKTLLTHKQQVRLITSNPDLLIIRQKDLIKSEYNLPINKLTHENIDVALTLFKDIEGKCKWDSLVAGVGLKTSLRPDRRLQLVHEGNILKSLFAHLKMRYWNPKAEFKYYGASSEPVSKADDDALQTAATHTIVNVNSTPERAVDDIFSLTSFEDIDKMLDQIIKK

[2] = molecular target: T1, Bse634I wt; test: EMSA; remark: listed apart in the source
[3] = molecular target: T2, Bse634I R226A (UniProt Q8RT53 1-293, R226A); test: crystal structure
T2 sequence: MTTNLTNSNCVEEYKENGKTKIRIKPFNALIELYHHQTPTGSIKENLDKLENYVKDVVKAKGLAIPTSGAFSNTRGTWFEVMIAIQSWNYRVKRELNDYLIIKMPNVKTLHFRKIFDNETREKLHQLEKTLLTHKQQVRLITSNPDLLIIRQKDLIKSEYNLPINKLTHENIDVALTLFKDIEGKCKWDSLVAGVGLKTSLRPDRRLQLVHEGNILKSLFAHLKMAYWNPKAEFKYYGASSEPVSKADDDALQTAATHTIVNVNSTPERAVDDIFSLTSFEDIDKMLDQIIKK

[4] = molecular target: T2, Bse634I R226A; test: crystal structure; remark: listed apart in the source
[5] = molecular target: T2, Bse634I R226A; test: crystal structure; remark: listed apart in the source

B1: AU (dsDNA)
DNA 1: CGCACGATCACCGGUGATGCACGC
DNA 2: GCGTGCATCACCGGUGATCGTGCG
modifications: dU for T at position 15 of each strand
[1]
  binding result: binds

B2: IC (dsDNA)
DNA 1: CGCACGATCGCCGGCGATGCACGC
DNA 2: GCGTGCATCGCCGGCGATCGTGCG
modifications: inosine for G at position 10 of each strand (written as G)
[1]
  binding result: binds

B3: AT (dsDNA)
DNA 1: CGCACGATCACCGGTGATGCACGC
DNA 2: GCGTGCATCACCGGTGATCGTGCG
[2]
  binding result: binds

B4: GC-1 (dsDNA)
DNA 1: TCGCGCCGGCGCG
DNA 2: TCGCGCCGGCGCG
[3]
  binding result: binds

B5: AT-1 (dsDNA)
DNA 1: TCGCACCGGTGCG
DNA 2: TCGCACCGGTGCG
[4]
  binding result: binds

B6: GC (dsDNA)
DNA 1: CGCACGATCGCCGGCGATGCACGC
DNA 2: GCGTGCATCGCCGGCGATCGTGCG
[2]
  binding result: binds

B7: AT-2 (dsDNA)
DNA 1: TTCGACCGGTCGA
DNA 2: TTCGACCGGTCGA
[5]
  binding result: binds
